Reference: patent US12410253B2, “Compositions comprising anti-NRP2 antibodies” (aTyr Pharma, Inc., priority 2019, dated 2025)
Numbering of substitutions follows the chain as printed. Entries after “also recorded” stand apart in the source; their conditions may differ.

T1: Human NRP2 (aa23-855) (Homo sapiens, UniProt O60462)
T1 construct: Human NRP2 (aa23-855)
T1 sequence (O60462 23-855 isoform O60462-3): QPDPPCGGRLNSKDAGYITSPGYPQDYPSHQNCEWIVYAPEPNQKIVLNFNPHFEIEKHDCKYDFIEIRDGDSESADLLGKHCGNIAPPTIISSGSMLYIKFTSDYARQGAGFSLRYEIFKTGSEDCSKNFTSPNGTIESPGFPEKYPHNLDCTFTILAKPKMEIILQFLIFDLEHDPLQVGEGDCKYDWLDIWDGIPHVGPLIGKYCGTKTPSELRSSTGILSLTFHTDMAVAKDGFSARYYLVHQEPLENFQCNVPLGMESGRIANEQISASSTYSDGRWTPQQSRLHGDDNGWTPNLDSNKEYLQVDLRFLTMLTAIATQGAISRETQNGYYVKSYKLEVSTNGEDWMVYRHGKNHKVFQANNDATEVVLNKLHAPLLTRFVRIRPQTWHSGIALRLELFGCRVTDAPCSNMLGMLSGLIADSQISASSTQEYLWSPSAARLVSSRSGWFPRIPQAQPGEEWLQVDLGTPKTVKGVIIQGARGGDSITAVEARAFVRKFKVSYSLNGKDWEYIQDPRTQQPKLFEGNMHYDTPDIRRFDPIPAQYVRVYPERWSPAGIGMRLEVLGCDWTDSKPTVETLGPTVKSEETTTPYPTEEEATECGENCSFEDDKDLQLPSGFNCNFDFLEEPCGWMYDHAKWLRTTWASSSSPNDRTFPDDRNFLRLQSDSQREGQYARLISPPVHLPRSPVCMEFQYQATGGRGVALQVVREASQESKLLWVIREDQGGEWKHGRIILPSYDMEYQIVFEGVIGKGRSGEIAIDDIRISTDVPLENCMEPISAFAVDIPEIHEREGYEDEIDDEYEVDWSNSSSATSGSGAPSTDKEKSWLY

T2: NRP2/FLT4(VEGFR3) (Homo sapiens, UniProt O60462)
T2 construct: The complete extracellular domain and transmembrane helices of NRP2a (version 2), NRP2b (version 5); expressed in transfected cells; host or cells: Expi293, transient co-transfection
T2 sequence (O60462 23-859 isoform O60462-3 limits assumed): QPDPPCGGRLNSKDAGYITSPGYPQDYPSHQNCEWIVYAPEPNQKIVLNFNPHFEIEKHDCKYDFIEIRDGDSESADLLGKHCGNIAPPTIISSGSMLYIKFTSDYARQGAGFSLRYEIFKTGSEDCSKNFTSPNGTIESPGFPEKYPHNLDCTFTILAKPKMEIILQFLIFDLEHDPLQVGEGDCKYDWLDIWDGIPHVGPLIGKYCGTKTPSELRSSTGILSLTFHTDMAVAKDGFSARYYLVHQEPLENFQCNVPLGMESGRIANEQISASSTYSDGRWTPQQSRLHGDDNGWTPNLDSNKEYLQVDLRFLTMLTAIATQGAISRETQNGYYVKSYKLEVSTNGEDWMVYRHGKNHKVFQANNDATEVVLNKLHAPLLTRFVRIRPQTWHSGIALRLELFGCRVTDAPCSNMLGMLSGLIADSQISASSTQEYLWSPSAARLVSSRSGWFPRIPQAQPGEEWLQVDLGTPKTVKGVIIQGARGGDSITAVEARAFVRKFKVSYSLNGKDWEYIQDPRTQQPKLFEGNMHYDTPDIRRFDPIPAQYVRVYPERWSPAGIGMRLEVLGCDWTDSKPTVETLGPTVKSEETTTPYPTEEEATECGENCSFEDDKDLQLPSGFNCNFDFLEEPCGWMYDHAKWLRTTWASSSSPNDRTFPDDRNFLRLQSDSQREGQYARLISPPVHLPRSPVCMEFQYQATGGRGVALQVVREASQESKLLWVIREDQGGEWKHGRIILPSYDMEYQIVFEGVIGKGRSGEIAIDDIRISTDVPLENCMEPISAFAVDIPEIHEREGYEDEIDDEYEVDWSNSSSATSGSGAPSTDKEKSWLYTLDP

B1: Sema3F: Semaphorin 3F, NRP2 ligand used to reduce phospho-Akt levels (protein)
chain: SFPTQDHLPATPRVRLSFKELKATGTAHFFNFLLNTTDYRILLKDEDHDRMYVGSKDYVLSLDLHDINREPLIIHWAASPQRIEECVLSGKDVNGECGNFVRLIQPWNRTHLYVCGTGAYNPMCTYVNRGRRAQATPWTQTQAVRGRGSRATDGALRPMPTAPRQDYIFYLEPERLESGKGKCPYDPKLDTASALINEELYAGVYIDFMGTDAAIFRTLGKQTAMRTDQYNSRWLNDPSFIHAELIPDSAERNDDKLYFFFRERSAEAPQSPAVYARIGRICLNDDGGHCCLVNKWSTFLKARLVCSVPGEDGIETHFDELQDVFVQQTQDVRNPVIYAVFTSSGSVFRGSAVCVYSMADIRMVFNGPFAHKEGPNYQWMPFSGKMPYPRPGTCPGGTFTPSMKSTKDYPDEVINFMRSHPLMYQAVYPLQRRPLVVRTGAPYRLTTIAVDQVDAADGRYEVLFLGTDRGTVQKVIVLPKDDQELEELMLEEVEVFKDPAPVKTMTISSKRQQLYVASAVGVTHLSLHRCQAYGAACADCCLARDPYCAWDGQACSRYTASSKRASRAQDVRHGNPIRQCRGFNSNANKNAVESVQYGVAGSAAFLECQPRSPQATVKWLFQRDPGDRRREIRAEDRFLRTEQGLLLRALQLSDRGLYSCTATENNFKHVVTRVQLHVLGRDAVHAALFPPLSMSAPPPPGAGPPTPPYQELAQLLAQPEVGLIHQYCQGYWRHVPPSPREAPGAPRSPEPQDQKKPRNRR
B2: aNRP2-14v10: humanized, affinity matured anti-NRP2 antibody, target domain a2, semaphorin blocking; VH SEQ ID NO: 55, VL SEQ ID NO: 56 (antibody, V domains shown)
VH: QLQLVESGGGVVQPGRSLRLSCTVSGFSLTSYGVHWVRQAPGKGLEWVGLIWSGGSTDYSPAFISRFTISEDNSKSTVYLQMNSLRAEDTAVYFCARNSYSSGYYAMDYWGQGTTVTVSS
VL: DIQLTQSPSFLSASVGDRVTITCKASQNVGTAVAWYQQKPGKAPKLLIYSASNRYTGVPSRFSGSGSGTEFTLTISSLQPEDFATYYCQQRSRYPPYTFGGGTKVEIK
modifications: Variable heavy chain region; Light chain variable region
B3: aNRP2-14v9: humanized, affinity matured anti-NRP2 antibody, target domain a2; VH SEQ ID NO: 53, VL SEQ ID NO: 54 (antibody, V domains shown)
VH: B2 VH
VL: B2 VL with T31H, R91Y
modifications: Variable heavy chain region; Light chain variable region

What was measured:
[1] = test system: phospho-Akt levels in U251 glioblastoma cells; assay: Semaphorin 3F mediated inhibition of AKT phosphorylation in U251 cells; assay type: cell-based
Description: As shown schematically in FIG. 17, the treatment of cells with Sema3F should specifically block PI3K activity via NRP2 mediated interaction with plexin A1, thereby resulting in reduced phospho-Akt levels. To directly test the ability of the anti-NRP2 antibodies to block this effect, lysates were prepared following standard protocols (MesoScale Discovery, Phospho (Ser473)/Total Akt Assay Whole Cell Lysate Kit #K15100D). Serum starved and confluent U251 cells (Sigma, Cat. 09063001) were treated with 10 nM rapamycin (Sigma, Cat. 553211, 30 minutes), and blocking antibodies or controls were added (10 μg/mL, 30 minutes), followed by 25 nM Sema3F or serum free media for 1 hour in triplicate. Lysate protein concentrations were determined by BCA assay and samples were equalized to 0.4 mg/mL. Phospho and Total AKT were measured following the manufacturer's instructions and percent phosphorylation was calculated by dividing phosphorylated AKT relative units by total AKT relative units. Blocking of Sema3F for each antibody or control was determined by comparing percent phosphorylation of Sema3F treated cells to percent phosphorylation of non-Sema3F treated cells.

Human NRP2 (aa23-855) = target: T1, Human NRP2 (aa23-855); assay: SPR binding affinity of anti-NRP2 antibodies to human NRP2 antigen; details: KD = kd/ka, Langmuir (1:1) model
Description: Anti-NRP2 antibody binding and affinity measurements. […] SPR experiments were conducted on a Bio-Rad ProteOn XPR36 Protein Interaction Array instrument. Biotinylated anti-human antibody (ThermoFisher Cat #7103302100) was immobilized on ProteOn NLC sensor chips. Anti-NRP2 antibodies were subsequently flowed over and captured by the anti-human antibody. Human NRP2 antigen protein was flowed over the captured antibody at varying concentrations (150, 50, 16.67, 5.56, 1.85 nM). The sensor chip surface was regenerated between each analyte run to remove anti-NRP2 antibodies and NRP2 protein. Data was double referenced against a surface with no anti-NRP2 antibody captured (immobilized anti-human antibody only) and a buffer only blank. Affinity constants were derived by globally fitting sensograms to a Langmuir (1:1) interaction model in the ProteOn manager software. For each anti-NRP2 antibody, data from the multiple NRP2 concentrations was fit as a single data set with dissociation rate constant (kd), association rate constant (ka) and Rmax values as global parameters. The reported binding affinity is the equilibrium dissociation constant (KD) calculated from kd/ka. • Running buffer: 50 mM HEPES, 300 mM NaCl, 5 mM CaCl2), 0.005% Tween-20, pH 7.4 • Immobilized antibody: CaptureSelect Human Fab-kappa Kinetics Biotin Conjugate, ThermoFisher Cat #7103302100 • Antigen: Human NRP2 (aa23-855) with C-terminal Avi-, Myc- and His-tags • Regeneration buffer: 10 mM glycine pH 2.0

NRP2/PLXNA1 = assay: Split-luciferase receptor dimerization assay, NRP2/PLXNA1 with SEMA3F; assay type: cell-based, human; details: antibody 100 nM; ligand induced dimerization
Description: (§1) To further extend the assessment of the biological activity of the anti-NRP2 antibodies, their activity was assessed in a receptor dimerization assay. In brief, vectors encoding a split luciferase pBiT1.1 and pBiT2.1 were obtained from Promega corporation (Madison, Wisconsin). The complete extracellular domain and transmembrane helices of NRP2a (version 2), NRP2b (version 5) (See table N1), FLT4 (VEGFR3), KDR (VEGFR2), and plexin A1 (PLXNA1) were cloned into the vectors and screened for optimal orientation, receptor density, and ligand induced dimerization, following established methods. Expi293 cells (Fisher) were transfected at 1 million cells/mL ˜20 hours prior to the assay with NRP2 and a co-receptor at equal mass amounts. Cells were counted, and 100,000 live cells were plated in a well of a white luminometer plate in Live Cell Imaging Solution (Fisher). Nano-Glo assay substrate (Promega) was added, and the plate was read on a Glomax 96 luminometer at room temperature to establish baseline luminescence. Antibodies were added to the well at 100 nM and the plate was again read to establish a new baseline and monitor the effects of the antibodies on spontaneous receptor dimerization. Depending on the receptor pair, typically 200 nM SEMA3F-p95 (aTyr Pharma), 2 nM VEGF-C(R&D Systems, Minnesota), or 2 nM VEGF165 (R&D Systems, Minnesota) were then added and the plate was again read to measure dimerization of receptors. Normalized responses for each individual well were calculated to the time point prior to addition of ligand, then normalized to no-antibody/no-ligand (baseline signal). Replicates were then processed to give average response and standard deviation. Results are summarized in Table E3 below, and shown graphically in FIGS. 3-10.

NRP2/FLT4(VEGFR3) = target: T2, NRP2/FLT4(VEGFR3); assay: Split-luciferase receptor dimerization assay, NRP2/FLT4 with VEGF-C; assay type: cell-based; details: antibody 100 nM; ligand induced dimerization
Description: as §1

Molecule	decrease in intracellular phospho-Akt levels ([1]; 25 nM Sema3F, 1 hour)	blocking of the Sema3F induced decrease in intracellular phospho-Akt levels ([1]; antibody 10 μg/mL, 25 nM Sema3F 1 hour)	Kd (Human NRP2 (aa23-855)) [nM]	effect on NRP2-plexin heterodimerization (in words) (NRP2/PLXNA1)	effect on NRP2-VEGFR3 (FLT4) heterodimerization (in words) (NRP2/FLT4(VEGFR3))
B1	approximately 50%	–	–	–	–
B2	–	blocked the reduction in phospho-Akt levels; also recorded: block semaphorin 3F mediated inhibition of AKT phosphorylation; also recorded: can be blocked	0.17	–	–
B3	–	–	0.15	extremely potent inhibition	no significant impact
